One may read the EC50 (read off the curve) as the midpoint of the concentration-response curve. Read a high EC50 (read off the curve) as weaker potency.

The target in this experiment is human full-length alpha-synuclein (human) (UniProt P37840). The experiment can be described thus: indirect ELISA on coated full-length alpha-synuclein, O.D. 405 nm. On the technique in general: An ELISA detects its analyte on a solid surface through an enzyme-linked reagent.

For Syn1 (antibody), the EC50 (read off the curve) was found to be 6 ng/mL.

(Values after patent US20250340623A1.)
